The source of these data is PMC4856479.

By stoichiometry N is commonly meant the number of molecules, sites or subunits per partner or assembly. What is called pKd is −log10 of the Kd, conventionally taken in molar units. The low end stands for a high Kd, the high end for a low Kd.

pKd: −log10 of the molar value.

Assay [1] deals with isolated HOIP-RBR/UbcH5B~ubiquitin complex (UniProt Q96EP0). Kind of assay: AUC.
Assay [2] has the same target. Nature of the assay: ITC. (Isothermal titration calorimetry measures the heat released or taken up as one component is titrated into another.)

With “isolated HOIP-RBR/UbcH5B~ubiquitin complex (from UniProt Q96EP0 696-1072; P62837 2-147; P0CG48 1-76)”, in assay [1], the stoichiometry N worked out at 2. Substance “mono-ubiquitin (untagged, native N- and C-termini) (from UniProt P0CG48 1-76) (natural protein)” had a negative logarithm of the Kd (pKd) in assay [2] below 4.30.
